The record followed here is PMC2192906.

Read-outs that look alike come from different tables or passages of the source.

For assay [1], the target named is biotinylated L^d–QL9 complex (immobilised on the chip) (UniProt Q60597). Put plainly: SPR.
Assay [2] deals with QL9/L^d complex on the surface of T2-L^d cells (UniProt Q60597). Kind of assay: radioligand binding.
Assay [3] concerns the target 2C single-chain TCR (scTCR), wild-type, thioredoxin fusion (mouse). Kind of assay: SPR.
For assay [4], the target named is 2C scTCR 102/55 double mutant (αS102A, βT55A) (mouse). Kind of assay: SPR.
For assay [5] the target is unchanged. Kind of assay: SPR. The source holds these as a separate data set.

Turning to “2C scTCR 102/55 double mutant (αS102A, βT55A)”, in assay [1], the Kd turned out to be 700 nM. Further, the fold better than wild-type (IC50 ratio) in assay [2] was determined as 2.3 fold. For “2C scTCR 102/56 double mutant (αS102A, βE56A)”, the ΔΔG against wild-type in assay [2] was -0.32 kcal/mol.

Consider 2C scTCR αS51P mutant (Vα3.2-like), for which, in assay [2], the fold reduced against wild-type (IC50 ratio) was found to be 15 fold. The substance 2C scTCR αS102A mutant gave a ΔΔG against wild-type in assay [2] of -0.31 kcal/mol. 2C scTCR βE56A mutant registered a ΔΔG against wild-type in assay [2] of -0.11 kcal/mol. In the case of 2C scTCR βE56K mutant, the ΔΔG against wild-type in assay [2] is 1.06 kcal/mol. On the same count and under the same terms, next, 2C scTCR βT55A mutant: -0.23 kcal/mol. As for “2C single-chain TCR (scTCR), wild-type, thioredoxin fusion”, the Kd in assay [1] worked out at 1900 nM. For the substance “purified soluble L^d–QL9 complex (from UniProt Q60597 41-1023) (peptide-MHC)”, the Kd in assay [3] turned out to be 1900 nM. The same substance showed a Kd in assay [4] of 1200 nM. Moreover, in assay [5], the equilibrium dissociation constant (Kd) amounted to 2400 nM, the koff of wild-type over koff of 102/55 (fold faster) was 3.2 fold and the kon of wild-type over kon of 102/55 (fold faster) was 2.4 fold.
